The results in this text go back to article doi:10.1101/2020.02.06.938233 (bioRxiv, 2020).

The series concerns the molecule itself. As to the kind of experiment: FRET or BRET. A general note: Bioluminescence resonance energy transfer reports proximity on the nanometre scale.

B1: UL44(2-433), wild type, as CFP, YFP or RLuc fusion in HEK 293T cells (natural protein)
chain: DRKTRLSEPPTLALRLKPYKTAIQQLRSVIRALKENTTVTFLPTPSLILQTVRSHCVSKITFNSSCLYITDKSFQPKTINNSTPLLGNFMYLTSSKDLTKFYVQDISDLSAKISMCAPDFNMEFSSACVHGQDIVRESENSAVHVDLDFGVVADLLKWIGPHTRVKRNVKKAPCPTGTVQILVHAGPPAIKFILTNGSELEFTANNRVSFHGVKNMRINVQLKNFYQTLLNCAVTKLPCTLRIVTEHDTLLYVASRNGLFAVENFLTEEPFQRGDPFDKNYVGNSGKSRGGGGGGGSLSSLANAGGLHDDGPGLDNDLMNEPMGLGGLGGGGGGGGKKHDRGGGGGSGTRKMSSGGGGGDHDHGLSSKEKYEQHKITSYLTSKGGSGGGGGGGGGGLDRNSGNYFNDAKEESDSEDSVTFEFVPNTKKQKCG
Regarding B1, the BRET ratio was 0.36 ± 0.1.
